Test results taken from paper PMC7211019, “Par complex cluster formation mediated by phase separation” (Nature Communications, 2020).
Ends that are not written are not given here.

B1: FITC-labeled Par6β PBM peptide (peptide)
peptide: LEEDGTIITL
modifications: also: FITC label, position not given here
notes: source: synthetic peptide (Phtdpeptides)

Experiments:
[1] = molecular target: T1, Par3 PDZ3 (rat, UniProt Q9Z340 582-685); experiment: fluorescence polarisation; FITC-labeled peptide (~1 μM) titrated with Par3 PDZ domains, 25 °C, buffer A (50 mM Tris pH 8.0, 100 mM NaCl, 1 mM EDTA, 1 mM DTT); conditions: both partners purified
T1 construct: Par3, rat, third PDZ domain; Cloned into pGEX-6P-1 or a modified pET32a vector; also called rat Par3 PDZ3; source: E. coli BL21 (DE3) or Rosetta, purified (Ni2+-NTA, SEC)
T1 sequence (Q9Z340 582-685): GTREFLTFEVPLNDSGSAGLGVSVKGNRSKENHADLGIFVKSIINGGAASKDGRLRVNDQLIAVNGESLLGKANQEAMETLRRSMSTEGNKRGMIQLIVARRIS

[2] = molecular target: B1; experiment: as above; conditions: both partners purified

Kd [1] [nM]	fold weakening against wild-type Par3 PDZ3 [2] [fold]	Binder
~1000	–	B1
–	~20	Par3 PDZ3 G600,602 A (domain or fragment, rat, Par3, rat, third PDZ domain with G600A and G602A; source: E. coli BL21 (DE3) or Rosetta, purified (Ni2+-NTA, SEC)) GTREFLTFEVPLNDSGSAALAVSVKGNRSKENHADLGIFVKSIINGGAASKDGRLRVNDQLIAVNGESLLGKANQEAMETLRRSMSTEGNKRGMIQLIVARRIS
